These are literature values, as cited in patent US20190382746.

For data set [1], the system named is PP7 coat protein (Pseudomonas phage PP7). The settings on record: CITED? source not stated; cited from earlier work.
Data set [2] deals with RSG1.2 peptide (synthetic). The settings on record: CITED? source not stated; cited from earlier work.

PP7 aptamer (25 nt): the Kd in data set [1] is 2 nM.
RSG1.2 aptamer (HIV RRE, 34 nt): in data set [2], the Kd is 6 nM.

What is called Kd is the concentration at which binding is half-saturated.
